According to patent US7166568B1, “Compositions and methods to inhibit formation of the C5b-9 complex of complement” (Oklahoma Medical Research Foundation, priority 1998, dated 2007):
“Also recorded” adds a separate entry of the source.

These substances were tested against T1, hu CD59 (Homo sapiens, UniProt P13987) (assay: Inhibitory function of CD59 towards recombinant C9 constructs (hemolysis of C5b-8 chE with or without membrane CD59)). Conditions: chE with hu C5b67 and rb C8, 0 or 750 ng/ml CD59; compared with hu C9 and rb C9.
T1 construct: human erythrocyte membrane glycoprotein CD59 were purified; from tissue; host or cells: human erythrocyte membranes
T1 sequence (P13987 26-102): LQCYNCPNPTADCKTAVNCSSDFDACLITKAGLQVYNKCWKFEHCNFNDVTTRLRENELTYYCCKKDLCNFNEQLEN
Assay type: cell-based
Experimental: Analysis of the inhibitory function of CD 59 towards recombinant C9 constructs—Hemolytic activity of each C9 construct was assayed using as target cells chE that were reconstituted with purified hu CD59, as described by Husler, et al., (1995). chE were washed extensively and suspended in GVBS, and the membrane C5b67 complex assembled by mixing cells (1.4×10^9/ml) with C5b6 (13 μg/ml) followed by addition of C7 (1 μg/ml). After 10 min., the C5b67 chE were diluted to 1.4×10^8/ml in GVBE and incubated (10 min. 37° C.) with 0 or 750 ng/ml CD59. In each case, the final concentration of Nonidet P-40 was less than 0.002% (v/v). After washing in ice-cold GVBE, 2.8×10^8 of these cells were incubated (37° C.) in a total volume of 100 μl with 1 ng rb C8 plus, between zero and 50 ng of recombinant C9, serially diluted in Opti-MEM I. Hemolysis was determined after 30 minutes at 37° C., with correction for nonspecific lysis, determined in the absence of C9. In each experiment, the inhibitory activity of CD59 towards each recombinant C9 construct was determined from the reduction in complement lysis of those cells reconstituted with CD59, versus the identically-treated cells omitting CD59, measured at the midpoint of the C9 titration (i.e., 50% hemolysis). In order to directly compare results obtained in experiments performed on different days, data for each recombinant C9 construct were normalized to results obtained in each experiment with hu C9.

Substance	sensitivity of the C9 construct to inhibition of MAC lytic activity by membrane CD59
chimera #12: hu/rb C9 chimera H1-357R363–393H385–538	did not significantly diminish CD59's capacity to inhibit the lytic activity of C9
chimera #9: hu/rb C9 chimera H1-357R363–424H416–538	did not completely eliminate interaction with CD59
chimera #4: hu/rb C9 chimera R1-363H359–415R425–536	indistinguishable from hu C9
chimera #8: hu/rb C9 chimera H1-333R339–424H416–538	indistinguishable from rb C9 and virtually unaffected by the presence of membrane CD59; also recorded: completely eliminated hu-selective interaction with CD59
chimera #5: hu/rb C9 chimera R1-363H359–391R401–536	conferred full recognition by CD59
chimera #7: hu/rb C9 chimera R1-363H359–384R394–536	small but significant reduction in inhibition of MAC lytic activity by CD59
chimera #3: hu/rb C9 chimera H1-357R363–536	indistinguishable from rb C9 and only weakly inhibited by CD59
chimera #6: hu/rb C9 chimera R1-400H392–415R425–536	failed to confer any recognition by CD59
chimera #2: hu/rb C9 chimera R1-363H359–538	unaffected
chimera #1: hu/rb C9 chimera R1-338H334–415R425–536	indistinguishable from hu C9 in its sensitivity to inhibition by CD59
